Patent publication US20240400618A1 (GRIFOLS DIAGNOSTIC SOLUTIONS, published 2024)
Where two headings read alike, the source gives them in different places.

How the values were obtained:
pxAM-FLS-SSAS-TB-His [1] = target: T1, pxAM-FLS-SSAS-TB-His (SARS-CoV-2, UniProt P0DTC2 15-1213)
pxAM-FLS-SSAS-TB-His [2] = target: T1, pxAM-FLS-SSAS-TB-His; remark: listed apart in the source
[3] = target: India, Delta, pxENB9-FLS-B.1.617.2 (SARS-CoV-2, UniProt P0DTC2 15-1213)
[4] = target: US/CA, Epsilon, pxENB9-FLS-B.1.427 (SARS-CoV-2, UniProt P0DTC2 15-1213)
[5] = target: Brazil, Gamma, pxENB9-FLS-P.1 (SARS-CoV-2, UniProt P0DTC2 15-1213)
pxAM-FLS-SSAS-TB-His [6] = target: T1, pxAM-FLS-SSAS-TB-His; remark: listed apart in the source

B1: pxEBN4-ACE2-AAA-His (receptor)
chain: QSTIEEQAKTFLDKFNHEAEDLFYQSSLASWNYNTNITEENVQNMNNAGDKWSAFLKEQSTLAQMYPLQEIQNLTVKLQLQALQQNGSSVLSEDKSKRLNTILNTMSTIYSTGKVCNPDAPAECLLLEPGLNEIMANSLDYNERLWAWESWRSEVGKALRPLYEEYVVLKNEMARANHYEDYGDYWRGDYEVNGVDGYDYSRGQLIEDVEHTFEEIKPLYEHLHAYVRAKLMNAYPSYISPIGCLPAHLLGDMWGRFWTNLYSLTVPFGQKPNIDVTDAMVDQAWDAQRIFKEAEKFFVSVGLPNMTQGFWENSMLTDPGNVQKAVCHPTAWDLGKGDFRILMCTKVTMDDFLTAHHEMGHIQYDMAYAAQPFLLRNGANEGFHEAVGEIMSLSAATPKHLKSIGLLSPDFQEDNETEINFLLKQALTIVGTLPFTYMLEKWRWMVFKGEIPKDQWMKKWWEMKREIVGVVEPVPHDETYCDPASLFHVSNDYSFIRYYTRTLYQFQFQEALCQAAKHEGPLHKCDISNSTEAGQKLFNMLRLGKSEPWTLALENVVGAKNMNVRPLLNYFEPLFTWLKDQNKNSFVGWSTDWSPYADGGGSHHHHHHHH
B1 showed a Kd (pxAM-FLS-SSAS-TB-His [1]) of 5.62 nM, a Kd (pxAM-FLS-SSAS-TB-His [2]) of 0.524 nM and a Kd [3] of 2.55 nM. For the same binder, the Kd [4] was 1.3 nM, the Kd [5] was 0.00159 nM and the Kd (pxAM-FLS-SSAS-TB-His [6]) was 0.13 nM.
